Experimental data from patent US20020164657A1, “Assays for assessing A beta-Tau aggregation” (priority 2001, published 2002).

Target: T1, tau phosphorylated by TPK II (Homo sapiens, UniProt P10636)
T1 construct: Human recombinant tau 1-383 isoform; made in house; host or cells: tau and p20: E. coli; cdk5: baculovirus-infected insect cells
Experiment: Gel-shift assay of TPK II tau phosphorylation
Assay type: biochemical
Conditions: 3 μM tau, 50 nM TPK II, 60 μM Aβ peptide, 4 hours, FIG. 8
Method: Gel-shift assays were done by incubating 3 μM tau with 50 nM TPK II and/or 167 units/ml TPK I for the indicated time at 37° C. in a total volume of 20 μl containing 40 mM Tris, pH 7.5, 10 mM MgCl2, 1 mM DTT, and 1 mM ATP. Aβ peptides were added at 10× concentrations to the assay to achieve the final concentration indicated. Following incubation the samples were electrophoresed on 12% SDS-PAGE and stained with Coomassie Blue R-250.

T1 sequence (P10636 1-383 isoform P10636-6): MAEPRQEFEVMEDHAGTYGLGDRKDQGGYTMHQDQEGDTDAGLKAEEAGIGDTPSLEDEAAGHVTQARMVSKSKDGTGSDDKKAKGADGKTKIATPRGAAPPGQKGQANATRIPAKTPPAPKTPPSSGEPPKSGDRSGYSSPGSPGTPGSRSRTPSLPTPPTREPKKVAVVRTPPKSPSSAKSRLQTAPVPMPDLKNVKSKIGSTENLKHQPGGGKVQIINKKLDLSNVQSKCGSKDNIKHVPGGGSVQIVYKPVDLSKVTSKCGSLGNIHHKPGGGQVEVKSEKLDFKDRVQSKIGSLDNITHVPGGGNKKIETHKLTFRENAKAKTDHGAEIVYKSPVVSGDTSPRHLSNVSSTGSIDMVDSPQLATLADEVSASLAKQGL

effect on tau gel shift	Substance
no effect	Aβ 1-40: beta-amyloid peptide, residues 1-40, obtained from Bachem; control peptide
no effect	Aβ 25-35: beta-amyloid peptide fragment 25-35, obtained from Bachem; control peptide (GSNKGAIIGLM)
